Experimental findings from patent US20120021972A1 (CADILA HEALTHCARE, published 2012) are described below.

Starred links: 1 amine or outer side, 2 acyl side, 3 side chain; linkers in the order of their positions; H or OH if unused. Non-standard residues stand in square brackets, D forms with d. No end group written: not given here. 2,4‑diF‑APPA = 2-amino-5-(2,4-difluorophenyl)pentanoic acid, O=C([C@H](CCCc1ccc(F)cc1F)N[*:1])[*:2]; ACPP = 2-amino-5-(3-chlorophenyl)pentanoic acid, O=C([C@H](CCCc1cccc(Cl)c1)N[*:1])[*:2]; 2CF3‑APPA = 2-amino-5-(2-(trifluoromethyl)phenyl)pentanoic acid; Bip(2'-Et-4'-OMe) = CCc1cc(OC)ccc1-c1ccc(C[C@H](N)C(=O)O)cc1; Leu(5,5,5,5',5',5'-F6) = N[C@@H](CC(C(F)(F)F)C(F)(F)F)C(=O)O; Nva(5-(3,5-Me2Ph)) = Cc1cc(C)cc(CCC[C@H](N)C(=O)O)c1; 2F‑APPA = 2-amino-5-(2-fluorophenyl)pentanoic acid; αMePhe(2-F) = C[C@](N)(Cc1ccccc1F)C(=O)O; Phe(2-F) = N[C@@H](Cc1ccccc1F)C(=O)O; hhPhe = N[C@@H](CCCc1ccccc1)C(=O)O; NMeD = CN[C@@H](CC(=O)O)C(=O)O; aThr = C[C@H](O)[C@H](N)C(=O)O; NMeAPPA = not defined here; CNB = not defined here; Aib = CC(C)(N)C(=O)O

Sequence of human GLP-1 receptor (P43220 24-463): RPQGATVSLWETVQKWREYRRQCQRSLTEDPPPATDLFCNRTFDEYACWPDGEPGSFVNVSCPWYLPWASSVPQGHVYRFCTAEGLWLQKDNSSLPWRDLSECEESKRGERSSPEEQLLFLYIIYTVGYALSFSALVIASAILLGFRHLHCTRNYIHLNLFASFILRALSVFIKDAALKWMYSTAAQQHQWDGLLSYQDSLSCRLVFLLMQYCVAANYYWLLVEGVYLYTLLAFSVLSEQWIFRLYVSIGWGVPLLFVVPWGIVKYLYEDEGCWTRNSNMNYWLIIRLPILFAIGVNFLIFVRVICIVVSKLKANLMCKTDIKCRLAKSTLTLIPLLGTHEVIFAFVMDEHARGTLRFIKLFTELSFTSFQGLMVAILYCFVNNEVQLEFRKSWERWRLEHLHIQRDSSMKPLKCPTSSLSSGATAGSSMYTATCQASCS

One assay concerns the target human GLP-1 receptor (human, UniProt P43220 24-463). The experiment in a line: cell-based or functional assay.
In the case of H[Aib][Leu(5,5,5,5',5',5'-F6)]G[aThr][αMePhe(2-F)][aThr]SD[Bip(2'-Et-4'-OMe)][2F‑APPA] (also: thioamide (C═S) bonds Z9-Z10 and Z10-Z11) [Seq. ID. No. 216: H-Aib-(Hfl)-G-T(allo)-(α-Me-2F-Phe)-T(allo)-SD-(C═S)-Bip(OMe)-(C═S)-(2F-APPA)], the “cAMP release, % activity, 1 nM” value came out at 93%; the “cAMP release, % activity, 10 nM” value came to 99%; the “cAMP release, % activity, 100 nM” value turned out to be 99%; the “cAMP release, % activity, 1 µM” value came out at 99%. The “cAMP release, % activity, 10 µM” value was 99%.
On to HSQGTFTSD[Bip(2'-Et-4'-OMe)][2CF3‑APPA] [Seq. ID. No. 47: HSQGTFTSD-Bip(OMe)-(2CF3-APPA)], for which the “cAMP release, % activity, 1 nM” value is 55%; the “cAMP release, % activity, 10 nM” value came out at 89%; the “cAMP release, % activity, 100 nM” value was 93%; the “cAMP release, % activity, 1 µM” value was 99%. In addition, the “cAMP release, % activity, 10 µM” value is 99%.
For H[Aib][CNB]G[aThr][αMePhe(2-F)][aThr]SD[Bip(2'-Et-4'-OMe)][hhPhe] (reading uncertain) [Seq. ID. No. 114: H-Aib-(CNB)-G-T(allo)-(α-Me-2F-Phe)-T(allo)-SD-Bip(OMe)-(APPA)], the “cAMP release, % activity, 1 nM” value amounted to 82%; the “cAMP release, % activity, 10 nM” value stood at 87%; the “cAMP release, % activity, 100 nM” value came out at 92%; the “cAMP release, % activity, 1 µM” value stood at 99%. Also, the “cAMP release, % activity, 10 µM” value came out at 99%.
In the case of H[Aib]QGTFTSD[Bip(2'-Et-4'-OMe)][2,4‑diF‑APPA] [Seq. ID. No. 62: H-Aib-QGTFTSD-Bip(OMe)-(2,4-diF-APPA)], the “cAMP release, % activity, 1 nM” value is 38%; the “cAMP release, % activity, 10 nM” value was determined as 78%; the “cAMP release, % activity, 100 nM” value turned out to be 86%; the “cAMP release, % activity, 1 µM” value is 95%. Further, the “cAMP release, % activity, 10 µM” value was determined as 98%.
Taken in the same sequence, the figures for H[Aib][CNB]G[aThr][αMePhe(2-F)]TSD[Bip(2'-Et-4'-OMe)][2F‑APPA] (reading uncertain) [Seq. ID. No. 112: H-Aib-(CNB)-G-T(allo)-(α-Me-2F-Phe)-TSD-Bip(OMe)-(2F-APPA)] were 39%, 81%, 89%, 96% and 99%.
For the molecule H[Aib][CNB]G[aThr][αMePhe(2-F)]TSD[Bip(2'-Et-4'-OMe)][hhPhe] (reading uncertain) [Seq. ID. No. 110: H-Aib-(CNB)-G-T(allo)-(α-Me-2F-Phe)-TSD-Bip(OMe)-(APPA)], the “cAMP release, % activity, 1 nM” value is 38%; the “cAMP release, % activity, 10 nM” value was 77%; the “cAMP release, % activity, 100 nM” value is 85%; the “cAMP release, % activity, 1 µM” value stood at 94%. For the same molecule, the “cAMP release, % activity, 10 µM” value came out at 97%.
Taken in the same sequence, the figures for H[Aib][Leu(5,5,5,5',5',5'-F6)]G[aThr][αMePhe(2-F)][aThr]S[NMeD][NMeBip(OMe)][NMeAPPA] (reading uncertain) [Seq. ID. No. 220: H-Aib-(Hfl)-G-T(allo)-(α-Me-2F-Phe)-T(allo)-S-(NMe)D-((NMe)Bip(OMe))-((NMe)(APPA))] were 93%, 99%, 99%, 99% and 99%.
The like results for Ac-H[Aib][Leu(5,5,5,5',5',5'-F6)]GT[αMePhe(2-F)]TSD[Bip(2'-Et-4'-OMe)][hhPhe] [Seq. ID. No. 210: CH3CO-H-Aib-(Hfl)-GT-(α-Me-2F-Phe)-TSD-Bip(OMe)-(APPA)] were, in that order, 46%, 85%, 90%, 99% and 99%.
As for H[Aib]QGT[αMePhe(2-F)]TSD[Bip(2'-Et-4'-OMe)][ACPP] [Seq. ID. No. 39: H-Aib-QGT-(α-Me-2F-Phe)-TSD-Bip(OMe)-(ACPP)], the “cAMP release, % activity, 1 nM” value was 40%; the “cAMP release, % activity, 10 nM” value turned out to be 81%; the “cAMP release, % activity, 100 nM” value is 87%; the “cAMP release, % activity, 1 µM” value is 95%. The “cAMP release, % activity, 10 µM” value is 98%.
Take H[Aib]QGT[Phe(2-F)]TSD[Bip(2'-Et-4'-OMe)][Nva(5-(3,5-Me2Ph))] [Seq. ID. No. 42: H-Aib-QGT-(2F-Phe)-TSD-Bip(OMe)-(ADMP)]: the “cAMP release, % activity, 1 nM” value worked out at 39%; the “cAMP release, % activity, 10 nM” value is 81%; the “cAMP release, % activity, 100 nM” value was determined as 89%; the “cAMP release, % activity, 1 µM” value is 96%. Further, the “cAMP release, % activity, 10 µM” value is 99%.

The next assay addresses human glucagon receptor (human, UniProt P47871 26-477). The experiment in a line: cell-based or functional assay.
As to H[Aib][CNB]G[aThr][αMePhe(2-F)][aThr]SD[Bip(2'-Et-4'-OMe)][hhPhe] (reading uncertain) [Seq. ID. No. 114: H-Aib-(CNB)-G-T(allo)-(α-Me-2F-Phe)-T(allo)-SD-Bip(OMe)-(APPA)], the “inhibition of cAMP production, 1 nM” value was 4 pmol/ml/µg prt; the “inhibition of cAMP production, 10 nM” value was 2 pmol/ml/µg prt; the “inhibition of cAMP production, 100 nM” value amounted to 0 pmol/ml/µg prt; the “inhibition of cAMP production, 1 µM” value is 0 pmol/ml/µg prt. The “inhibition of cAMP production, 10 µM” value came out at 0 pmol/ml/µg prt.
As for H[Aib][CNB]G[aThr][αMePhe(2-F)]TSD[Bip(2'-Et-4'-OMe)][2F‑APPA] (reading uncertain) [Seq. ID. No. 112: H-Aib-(CNB)-G-T(allo)-(α-Me-2F-Phe)-TSD-Bip(OMe)-(2F-APPA)], the “inhibition of cAMP production, 1 nM” value came out at 6 pmol/ml/µg prt; the “inhibition of cAMP production, 10 nM” value amounted to 5 pmol/ml/µg prt; the “inhibition of cAMP production, 100 nM” value worked out at 2 pmol/ml/µg prt; the “inhibition of cAMP production, 1 µM” value was 0 pmol/ml/µg prt. The “inhibition of cAMP production, 10 µM” value stood at 0 pmol/ml/µg prt.
Regarding H[Aib][CNB]G[aThr][αMePhe(2-F)]TSD[Bip(2'-Et-4'-OMe)][hhPhe] (reading uncertain) [Seq. ID. No. 110: H-Aib-(CNB)-G-T(allo)-(α-Me-2F-Phe)-TSD-Bip(OMe)-(APPA)], the “inhibition of cAMP production, 1 nM” value came to 18 pmol/ml/µg prt; the “inhibition of cAMP production, 10 nM” value amounted to 16 pmol/ml/µg prt; the “inhibition of cAMP production, 100 nM” value was determined as 12 pmol/ml/µg prt; the “inhibition of cAMP production, 1 µM” value stood at 8 pmol/ml/µg prt. The “inhibition of cAMP production, 10 µM” value stood at 6 pmol/ml/µg prt.
